In patent US20240309059A1, “PEPTIDE HAVING ANTI-VIRAL ACTIVITY, ANTI-VIRAL AGENT COMPRISING SAID PEPTIDE, AND METHOD FOR PRODUCING SAID ANTI-VIRAL AGENT” (National University Corporation Tokyo Medical and Dental …, priority 2021, published 2024):
Substitutions are numbered along the chain they refer to.

B1: Ce172 (peptide)
peptide: DKLWILQKIYEIMVRLDEEGHGEASLMVSDLIYEFMKRD
modifications: not checked
B2: Ce59 (peptide)
peptide: B1 peptide with L3E, V14R, M27R
modifications: not checked
B3: Ce149 (peptide)
peptide: B1 peptide with L3E, Q7Y
modifications: not checked
B4: Ce1 (peptide)
peptide: DKEWILQKIYEIMRLLDELGHAEASMRVSDLIYEFMKKD
modifications: not checked
B5: Ce9 (peptide)
peptide: B4 peptide with L15R, L19E
modifications: not checked
B6: Ce41 (peptide)
peptide: B4 peptide with L15R, L19E, A22G, M26L
modifications: not checked

Experiments:
Assay in all cases: cell-based or functional assay
[1] = biological target: receptor binding domain (RBD) in the SARS-CoV-2 UK variant (B.1.1.7) (SARS-CoV-2 UK variant (B.1.1.7)), P0DTC2
[2] = biological target: receptor binding domain (RBD) in wild-type SARS-COV-2 (SARS-CoV-2 (wild-type)), P0DTC2
[3] = biological target: receptor binding domain (RBD) in the SARS-CoV-2 Brazilian variant (P.1) (SARS-CoV-2 Brazilian variant (P.1)), P0DTC2

Row | Binder | IC50 value, plaque reduction assay using the SARS-COV-2 UK variant (B.1.1.7) [1] [nM] | IC50 value, plaque reduction assay using wild-type SARS-COV-2 [2] [nM] | IC50 value, plaque reduction assay using the SARS-COV-2 Brazilian variant (P.1) [3] [nM]
1 | B1 | 0.0022 |  | 
2 | B2 | 0.2 |  | 
3 | B3 | 0.0021 |  | 
4 | B4 |  | 1.5 | 
5 | B5 | 13 | 0.4 | 1200
6 | B6 | 0.68 |  | 
